B1: 40 bp random sequence dsDNA (dsDNA)
DNA 1: TTAGTTGTTCGTAGTGCTCGTCTGGCTCTGGATTACCCGC
DNA 2: GCGGGTAATCCAGAGCCAGACGAGCACTACGAACAACTAA

Assays:
[1] = biological target: Smc-HaloTag with J-Cys (S152C) (Bacillus subtilis) (UniProt P51834); experiment: cross-linking
[2] = biological target: T1, SmcHd(EQ);ScpA-N (Bacillus subtilis;Bacillus subtilis, UniProt P51834;P35154 1-219+=GPG+983-1186;1-86, E1118Q;internal_change|); experiment: fluorescence anisotropy
T1 sequence 1: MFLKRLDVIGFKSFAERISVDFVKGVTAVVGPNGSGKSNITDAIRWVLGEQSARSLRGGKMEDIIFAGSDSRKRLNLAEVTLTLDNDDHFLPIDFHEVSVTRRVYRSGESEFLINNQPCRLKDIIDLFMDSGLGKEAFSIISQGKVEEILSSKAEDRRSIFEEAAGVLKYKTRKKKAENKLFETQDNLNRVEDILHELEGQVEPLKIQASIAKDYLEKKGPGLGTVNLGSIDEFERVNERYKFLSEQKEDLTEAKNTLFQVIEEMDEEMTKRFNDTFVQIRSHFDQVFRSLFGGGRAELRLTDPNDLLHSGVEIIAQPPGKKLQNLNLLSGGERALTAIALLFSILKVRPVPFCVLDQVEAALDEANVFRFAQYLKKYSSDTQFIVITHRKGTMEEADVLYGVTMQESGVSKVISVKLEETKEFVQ
T1 sequence 2: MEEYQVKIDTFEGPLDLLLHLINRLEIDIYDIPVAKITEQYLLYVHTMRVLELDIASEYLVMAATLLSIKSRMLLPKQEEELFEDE

[3] = biological target: T2, SmcHd(EQ,3A-hd);ScpA-N (Bacillus subtilis;Bacillus subtilis, UniProt P51834;P51834;P35154 1-219;983-1186;1-86, K60A;R120A;K122A;EQ|); experiment: fluorescence anisotropy
T2 sequence 1: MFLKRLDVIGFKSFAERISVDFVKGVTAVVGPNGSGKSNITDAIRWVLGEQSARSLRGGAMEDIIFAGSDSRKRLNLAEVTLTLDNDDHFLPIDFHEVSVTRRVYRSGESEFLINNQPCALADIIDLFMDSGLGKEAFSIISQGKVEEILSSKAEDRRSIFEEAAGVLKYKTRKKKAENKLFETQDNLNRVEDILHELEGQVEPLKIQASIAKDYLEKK
T2 sequence 2: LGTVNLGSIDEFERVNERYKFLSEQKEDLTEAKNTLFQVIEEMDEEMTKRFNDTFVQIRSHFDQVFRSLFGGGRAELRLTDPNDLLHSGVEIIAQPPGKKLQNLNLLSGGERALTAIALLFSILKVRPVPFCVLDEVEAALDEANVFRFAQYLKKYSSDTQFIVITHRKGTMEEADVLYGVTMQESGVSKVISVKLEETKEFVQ
T2 sequence 3: T1 sequence 2

[4] = biological target: T3, SmcH-CC100 (Smc hinge with adjacent coiled coil) (Bacillus subtilis, UniProt P51834 400-776); experiment: fluorescence anisotropy
T3 sequence: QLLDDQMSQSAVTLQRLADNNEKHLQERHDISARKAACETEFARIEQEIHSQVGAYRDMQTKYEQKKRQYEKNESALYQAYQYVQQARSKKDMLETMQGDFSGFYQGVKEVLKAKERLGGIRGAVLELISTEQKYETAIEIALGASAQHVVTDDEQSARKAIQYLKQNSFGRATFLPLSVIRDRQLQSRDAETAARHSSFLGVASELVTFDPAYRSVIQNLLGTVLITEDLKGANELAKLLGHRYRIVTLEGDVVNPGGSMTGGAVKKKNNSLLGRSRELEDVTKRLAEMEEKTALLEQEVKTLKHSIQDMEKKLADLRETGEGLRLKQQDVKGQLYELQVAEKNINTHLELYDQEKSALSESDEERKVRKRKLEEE

Molecule	fraction of Smc-HT in the cross-linked species [1]	binding result [2]	binding result [3]	binding result [4]
Smc-HaloTag with J-Cys (S152C) (from UniProt P51834 1-1186) (natural protein)	66%			
B1		binds	no binding	binds
